Legend:
EKVX = experiment: M200 in vitro cell proliferation assay; format: cell-based; details: EKVX (lung), 4-day assay
Method: (§1) Cancer cell lines were plated at a density of 2500 cells/well in 96-well plates in IMDM with supplements in the presence or absence of 10% FBS. At the time of plating, cells were challenged with various concentrations M200 or a non-function blocking anti-α5 antibody, VC5. Four days later, cell viability was assessed by the CellTiter 96 AQueous Non-Radioactive Cell Proliferation Assay (Promega) according to the manufacturer's instructions. All growth studies were done at least 3 times in triplicate.

A2058 = experiment: M200 in vitro cell proliferation assay; format: cell-based; details: A2058 (melanoma), 4-day assay
Method: as §1

A549 = experiment: M200 in vitro cell proliferation assay; format: cell-based; details: A549 (lung), 4-day assay
Method: as §1

MIA PACA-2 = experiment: M200 in vitro cell proliferation assay; format: cell-based; details: MIA PACA-2 (pancreas), 4-day assay
Method: as §1

HCT-116 = experiment: M200 in vitro cell proliferation assay; format: cell-based; details: HCT-116 (colon), 4-day assay
Method: as §1

ASPC-1 = experiment: M200 in vitro cell proliferation assay; format: cell-based; details: ASPC-1 (pancreas), 4-day assay
Method: as §1

SN12C = experiment: M200 in vitro cell proliferation assay; format: cell-based; details: SN12C (renal), 4-day assay
Method: as §1

TK-10 = experiment: M200 in vitro cell proliferation assay; format: cell-based; details: TK-10 (renal), 4-day assay
Method: as §1

UACC-62 = experiment: M200 in vitro cell proliferation assay; format: cell-based; details: UACC-62 (melanoma), 4-day assay
Method: as §1

HT1376 = experiment: M200 in vitro cell proliferation assay; format: cell-based; details: HT1376 (bladder), 4-day assay
Method: as §1

refractory solid tumors = experiment: Phase I extension study: tumor response; format: in vivo, human
Method: A two-part Phase I open-label study was carried to determine the effects of treatment with up to 6 dose levels, from 0.5 mg/kg to 15.0 mg/kg of M200 (volociximab) in 21 human patients with a variety of refractory solid tumor types. The total duration of treatment for the first part was 6 weeks with physical assessments through 45 days after the last dose.
Patient evaluations during the study included the following: • a. Screening (within 14 days of study entry) of: medical history and physical examination, ECOG performance status, routine chemistry panel, complete blood count (CBC) with differential and platelets, sensitive C-reactive protein (CRP), urinalysis with microscopic analysis (UA/micro), electrocardiogram (ECG), chest radiograph (CXR), disease-directed body CT or MRI, urine pregnancy test within 48 hours prior to dosing, and coagulation studies (prothrombin [PT] and partial thromboplastin time [PTT]), anti-M200 antibodies (i.e., to detect cross-reactive HAMA or HACA) for patients who previously received murine or chimeric antibodies, head CT for patients with tumors that commonly metastasize to brain or CNS, and, in some patients, a biopsy to evaluate tumor vessel vascularity. • b. On-study laboratory evaluations: routine chemistry panel, urate, serum amylase, CBC with differential and platelets, UA/micro. • c. Routine disease-directed radiographic imaging (e.g., CT scanning) before and after treatment with M200 was used to evaluate tumor response using uni-dimensional, RECIST criteria. Target lesions were selected on the basis of their size (lesions with the longest diameter (LD)) and their suitability for accurate repetitive measurements (either by imaging techniques or clinically). A sum of the LD for all target lesions was calculated and reported as the baseline sum LD. The baseline sum LD was used as reference by which to characterize the objective tumor response. The following response criteria for the target lesions was used to assess the best overall response. • Complete Response (CR): Disappearance of all target lesions confirmed by repeat imaging 25 to 28 days after CR first documented. • Partial Response (PR): At least a 30% decrease in the sum of LD of target lesions, taking as reference the baseline sum LD, confirmed by repeat imaging 25 to 28 days after PR first documented. • Stable Disease (SD): Neither sufficient shrinkage to qualify for PR nor sufficient increase to qualify for PD, taking as references the smallest sum LD. • Progressive Disease (PD): At least a 20% increase in the sum of LD of target lesions, taking as reference the smallest sum LD recorded since treatment started, or the appearance of one or more new lesions. • d. Blood drawn for serum PK measurements, immunogenicity assays (anti-M200 antibodies), vascular growth factors, and measurement of bound and unbound α5β1 on peripheral blood monocytes. • e. A 3-mm punch biopsy of superficial tumor metastasis was obtained and frozen after the last treatment with M200 from patients who consented (not required for enrollment) to the procedure. This biopsy specimen could be used evaluate tumor vessel vascularity following treatment with M200.
One of these patients with renal cell cancer (RCC) in the 15.0 mg/kg cohort achieved a partial response.

LOX = experiment: M200 in vitro cell proliferation assay; format: cell-based; details: LOX (melanoma)
Method: Cancer cell lines were plated at a density of 2500 cells/well in 96-well plates in IMDM with supplements in the presence or absence of 10% FBS. At the time of plating, cells were challenged with various concentrations M200 or a non-function blocking anti-α5 antibody, VC5. […] All growth studies were done at least 3 times in triplicate.

B1: M200: chimeric IgG4 anti-α5β1 antibody derived from IIA1; generic name volociximab (antibody, V domains shown)
VH: MAVLGLLLCLVTFPSCVLSQVQLKESGPGLVAPSQSLSITCTISGFSLTDYGVHWVRQPPGKGLEWLVVIWSDGSSTYNSALKSRMTIRKDNSKSQVFLIMNSLQTDDSAMYYCARHGTYYGMTTTGDALDYWGQGTSVTVSS
VL: MDFQVQIFSFLLISASVIMSRGQIVLTQSPAIMSASLGERVTMTCTASSSVSSNYLHWYQQKPGSAPNLWIYSTSNLASGVPARFSGSGSGTSYSLTISSMEAEDAATYYCHQYLRSPPTFGGGTKLEIKDMSVDMSV
modifications: chimeric antibody
notes: chimeric IgG4 anti-α5β1 antibody derived from IIA1; generic name volociximab
- % Growth Inhibition +Serum (EKVX; 10% FBS): 0%
- % Growth Inhibition −Serum (EKVX; absence of serum): 10%
- % Growth Inhibition +Serum (A2058; 10% FBS): 0%
- % Growth Inhibition −Serum (A2058; absence of serum): 0%
- % Growth Inhibition +Serum (A549; 10% FBS): 0%
- % Growth Inhibition −Serum (A549; absence of serum): 40%
- % Growth Inhibition +Serum (MIA PACA-2; 10% FBS): 0%
- % Growth Inhibition −Serum (MIA PACA-2; absence of serum): 20%
- % Growth Inhibition +Serum (HCT-116; 10% FBS): 0%
- % Growth Inhibition −Serum (HCT-116; absence of serum): 15%
- % Growth Inhibition +Serum (ASPC-1; 10% FBS): 0%
- % Growth Inhibition −Serum (ASPC-1; absence of serum): 0%
- % Growth Inhibition +Serum (SN12C; 10% FBS): 0%
- % Growth Inhibition −Serum (SN12C; absence of serum): 5%
- % Growth Inhibition +Serum (TK-10; 10% FBS): 0%
- % Growth Inhibition −Serum (TK-10; absence of serum): 0%
- % Growth Inhibition +Serum (UACC-62; 10% FBS): 0%
- % Growth Inhibition −Serum (UACC-62; absence of serum): 0%
- % Growth Inhibition +Serum (HT1376; 10% FBS): 0%
- % Growth Inhibition −Serum (HT1376; absence of serum): 0%
- Best Response Outcome (refractory solid tumors; 2.5 mg/kg, 1 patient, NSCLC): SD (SD defined as stabilization for ≧16 weeks (112 days))
- Time to Progression (refractory solid tumors; 2.5 mg/kg, 1 patient, NSCLC, includes 43 days on dose escalation study): 129 days
- Best Response Outcome (refractory solid tumors; 5 mg/kg, 1 patient, HCC): SD (SD defined as stabilization for ≧16 weeks (112 days))
- Time to Progression (refractory solid tumors; 5 mg/kg, 1 patient, HCC, includes 43 days on dose escalation study): 122 days
- Time to Progression (refractory solid tumors; 10 mg/kg, 1 patient, CRC, includes 43 days on dose escalation study): 70 days
- Best Response Outcome (refractory solid tumors; 10 mg/kg, 1 patient, PARO): SD (SD defined as stabilization for ≧16 weeks (112 days))
- Time to Progression (refractory solid tumors; 10 mg/kg, 1 patient, PARO, includes 43 days on dose escalation study): 143 days
- Best Response Outcome (refractory solid tumors; 15 mg/kg, 1 patient, MEL): SD (SD defined as stabilization for ≧16 weeks (112 days))
- Time to Progression (Days) (refractory solid tumors; 15 mg/kg, 1 patient, MEL, on study, includes 43 days on dose escalation study): 172+ (on Study) Days
- Time to Progression (refractory solid tumors; 15 mg/kg, 1 patient, RCC, includes 43 days on dose escalation study): 214 days
- patients exhibiting stable disease (SD) or better response (refractory solid tumors; of the 6 patients in the extension study): 5 patients
- % Growth Inhibition +Serum (LOX; 10% FBS, 4-day assay): 35%
- % Growth Inhibition −Serum (LOX; absence of serum, 2-day rather than 4-day assay): 40^2%
